Source: patent US8932880B2, “Method for the direct measure of molecular interactions by detection of light reflected from multilayered functionalized dielectrics” (ProXentia s.r.l., priority 2009, dated 2015)

Target: T1, Avidin (Gallus gallus, UniProt P02701)
T1 construct: purchased Sigma-Aldrich A9275
Assay: Reflected light intensity from an antireflective SiO2-coated prism, He-Ne laser and photodiode (Example 2): binding to adsorbed Avidin
Settings: 632.8 nm laser; flow 10 microliters/minute; phosphate buffer pH 7.4 + 150 millimolar NaCl; BSA 0.4 micromolar, BSA-biotin 0.5 micromolar
Source text: A layer of silicon oxide (SiO2) was deposed by sputtering on one side of a glass prism, as described in Example 1. The prism is placed in a flow cell so that the coated surface is in contact with the aqueous solution. A light beam from a 5 milliwatts He—Ne laser is sent to the interface between the aqueous solution and the prism and the reflected light is detected by a photodiode that converts the light intensity in an electrical signal. Through the cell is promoted a flow of 10 microliters/minute of an aqueous solution containing sodium phosphate buffer pH 7.4+150 millimolar NaCl (hereafter called “phosphate buffer”) in the following order:
b) protein Avidin (marketed by Sigma-Aldrich, prod. No. A9275) at a concentration of 3 micromolar;
d) protein Bovine Serum Albumin, BSA (marketed by Sigma-Aldrich, prod. No. A6003) at a concentration of 0.4 micromolar;
f) protein BSA conjugated to biotin (marketed by Sigma-Aldrich, prod. No. A8549) at a concentration of 0.5 micromolar;
In FIG. 5 the measured reflected intensity is reported as a function of time. The value of the reflected light intensity measured before the step a) corresponds to a reflectivity of 3.2·10^−6. […] Unlike in Example 1, in this case the adhesion molecules on the surface causes an increase in the intensity of reflected light. […]

T1 sequence (P02701 25-152): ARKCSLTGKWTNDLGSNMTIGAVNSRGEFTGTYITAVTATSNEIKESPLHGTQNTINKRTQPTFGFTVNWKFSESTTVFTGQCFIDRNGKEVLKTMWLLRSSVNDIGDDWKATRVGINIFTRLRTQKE

- variation of reflected intensity on flowing the solution over adsorbed Avidin: no further variation is observed
Substance: Bovine Serum Albumin [BSA protein]
